Assay [1] has as its target T1, monomeric single-chain recombinant gC1q (Homo sapiens).
T1 construct: globular head module of human C1q A-chain; numbers count on: the mature protein; globular head module of human C1q C-chain; globular head module of human C1q B-chain; also called single-chain form of gC1q; hC1qGH
T1 chain: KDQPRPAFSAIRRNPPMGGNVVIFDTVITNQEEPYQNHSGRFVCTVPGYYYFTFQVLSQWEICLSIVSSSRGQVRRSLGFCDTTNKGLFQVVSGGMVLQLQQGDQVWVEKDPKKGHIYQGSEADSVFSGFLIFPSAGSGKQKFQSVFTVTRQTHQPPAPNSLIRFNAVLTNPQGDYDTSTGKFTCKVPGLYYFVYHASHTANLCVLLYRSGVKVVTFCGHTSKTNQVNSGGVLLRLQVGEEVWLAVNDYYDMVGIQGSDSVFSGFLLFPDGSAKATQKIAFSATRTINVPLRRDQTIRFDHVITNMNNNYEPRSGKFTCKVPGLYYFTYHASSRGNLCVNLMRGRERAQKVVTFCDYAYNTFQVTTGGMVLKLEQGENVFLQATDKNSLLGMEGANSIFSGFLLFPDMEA
The assay is described as follows: BLI; Octet Red96, 30°C, 1,000 rpm; C1qNb75 immobilized on amine reactive (AR2G) biosensors; kinetics buffer (PBS, 1 mg/mL BSA, 0.05% Tween 20); gC1q 0.3 to 10.9 nM, C1q 0.7 to 5.4 nM; gC1q data globally fitted with a 1:1 binding model. The note with it: both partners purified. On the technique in general: BLI is a label-free optical method that tracks binding on a fibre tip over time.

Another assay deals with human C1q (Homo sapiens, UniProt P02745;P02746;P02747). The assay is described as follows: cell-based or functional assay.
Sequence of human C1q (P02745 23-245, chain 1 of 2): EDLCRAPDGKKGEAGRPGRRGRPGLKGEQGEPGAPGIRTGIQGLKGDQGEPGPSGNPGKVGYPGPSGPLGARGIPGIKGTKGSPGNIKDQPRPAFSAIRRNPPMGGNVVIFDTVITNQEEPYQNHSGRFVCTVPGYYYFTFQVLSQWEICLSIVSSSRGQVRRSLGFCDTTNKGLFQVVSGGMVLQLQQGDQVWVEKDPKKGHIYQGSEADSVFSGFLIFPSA
Sequence of human C1q (P02747 29-245, chain 3 of 2): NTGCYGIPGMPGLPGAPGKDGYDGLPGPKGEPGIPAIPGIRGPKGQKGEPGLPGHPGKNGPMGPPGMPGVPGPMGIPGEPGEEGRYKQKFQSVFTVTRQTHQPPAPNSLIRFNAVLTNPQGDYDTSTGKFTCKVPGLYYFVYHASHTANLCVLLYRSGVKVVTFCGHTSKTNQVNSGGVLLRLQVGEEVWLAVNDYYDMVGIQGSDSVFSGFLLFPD

B1: C1qNb75 (VHH)
VHH: QVQLVETGGGLVQAGGSLRLSCAASGRTFNNDVMAWFRQAPGTEREFVALITAGGGTHYADSVKGRFVISRDNDKNMAYLQMNSLKSEDTAIYYCGADENPPGWPSRWSSAYDYWGQGTQVTVSS
notes: nanobody chain of the crystal structure deposited here as PDB 6Z6V; also called C1q specific nanobody; source: E. coli LOBSTR cells (pET22b+), purified (Ni-NTA, MonoS, Superdex75)
B1: in assay [1], the Kd is 0.3 nM and the t1/2 stood at 1.14 h. Besides, the “IC50 of hemolysis of IgM-sensitized sheep RBCs in NHS with increasing concentrations of C1qNb75 (blocks C1q binding to IgM)” value in the assay with human C1q worked out at 5.8 nM.

The Kd is the equilibrium constant for the complex coming apart.

The values above are taken from paper PMC7396675, “Functional and Structural Characterization of a Potent C1q Inhibitor Targeting the Classical Pathway of the Complement System” (Frontiers in Immunology, 2020).
